Reference: patent US20240254209A1
Several values for one entry are separate records, joined by “and”; a condition that tells them apart may be missing. Equal values may be shown once.

T1: peanut allergen Ara h 1 (peanut (Arachis hypogaea)) (UniProt P43238)
T1 sequence (looked up): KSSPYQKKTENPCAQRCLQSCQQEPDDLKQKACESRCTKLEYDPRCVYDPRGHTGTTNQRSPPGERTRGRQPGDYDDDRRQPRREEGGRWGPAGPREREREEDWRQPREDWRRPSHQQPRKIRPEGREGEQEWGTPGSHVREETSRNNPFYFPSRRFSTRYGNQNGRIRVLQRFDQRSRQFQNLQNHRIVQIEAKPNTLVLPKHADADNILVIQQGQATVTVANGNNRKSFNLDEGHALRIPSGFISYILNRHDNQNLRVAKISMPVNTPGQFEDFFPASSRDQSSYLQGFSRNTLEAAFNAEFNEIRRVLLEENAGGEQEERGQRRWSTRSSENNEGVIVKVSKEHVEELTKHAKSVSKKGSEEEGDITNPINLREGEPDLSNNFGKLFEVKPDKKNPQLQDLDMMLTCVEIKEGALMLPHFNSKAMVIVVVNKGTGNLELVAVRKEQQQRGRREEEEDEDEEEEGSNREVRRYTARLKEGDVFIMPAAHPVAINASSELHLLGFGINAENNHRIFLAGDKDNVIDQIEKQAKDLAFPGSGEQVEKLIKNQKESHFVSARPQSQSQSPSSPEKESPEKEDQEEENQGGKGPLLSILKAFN

T2: peanut allergen Ara h 2 (peanut (Arachis hypogaea)) (UniProt Q6PSU2)
T2 sequence (looked up): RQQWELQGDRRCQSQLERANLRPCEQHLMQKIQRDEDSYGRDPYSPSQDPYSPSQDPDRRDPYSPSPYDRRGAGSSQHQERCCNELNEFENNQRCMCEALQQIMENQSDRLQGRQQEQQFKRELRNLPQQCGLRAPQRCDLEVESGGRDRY

T3: peanut allergen Ara h 6 (peanut (Arachis hypogaea)) (UniProt Q647G9)
T3 sequence (looked up): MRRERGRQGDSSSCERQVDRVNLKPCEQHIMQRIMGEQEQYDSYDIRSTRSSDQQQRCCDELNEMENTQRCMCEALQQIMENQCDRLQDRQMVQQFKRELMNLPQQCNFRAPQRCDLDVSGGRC


Legend:
[1] = target: T1, peanut allergen Ara h 1 (peanut (Arachis hypogaea)); assay: ImmunoCAP, hybridoma supernatant
[2] = target: peanut extract (peanut ImmunoCAP F13); assay: ImmunoCAP, hybridoma supernatant
[3] = target: T2, peanut allergen Ara h 2 (peanut (Arachis hypogaea)); assay: ImmunoCAP, hybridoma supernatant
[4] = target: T3, peanut allergen Ara h 6 (peanut (Arachis hypogaea)); assay: Ara h 6 ImmunoCAP serum blocking; competitor: serum IgE of peanut allergic subjects
[5] = target: peanut extract (peanut ImmunoCAP F13); assay: peanut ImmunoCAP serum blocking; competitor: serum IgE of peanut allergic subjects

Row | ImmunoCAP kUA/L [1] | ImmunoCAP kUA/L [2] | ImmunoCAP kUA/L [3] | percent of serum Ara h 6-specific IgE blocked [4] | percent of total peanut binding serum IgE blocked [5] | Binder
1 | 0.6 kUA/L | 3140 kUA/L | 0.85 kUA/L |  |  | human IgE mAb 3C3 (antibody, V domains shown) VH: QLQLQESGPGLVKPSETLSLTCSISGASINSDDYYWGWIRQAPGEALEWIASIDASGTTFYNPSLRSRVTISVDTSTNQISLRLNSVTAADTAIYYCARRKTYYDFLTDYYNWYFDVWGRGTLVTVSS VL: QSALTQPRSVSGSPGQSVTFSCTGINSDIRDYDYVSWYQQHPGEAPKLIIYDVTKRASGVPSRFSGSKSGNTASLTISGLQAEDEADYYCCSYSVTYSFEVFGTGTQVSVL
2 |  | 14 kUA/L | 25.8 kUA/L |  |  | human IgE mAb 15A7 (antibody, V domains shown) VH: QVQLVQSGPEVRKPGASVKVSCKTSGYMFTDYEMNWVRQAPGQGLEWMGLINPHSGDTGYAQKFQGRVSMTSDTSTRTFYLELTGLTSEDTAVYYCARSQGTFEVYYFVSWGQGSLVTVSS VL: SYVLTQPPSVSVAPGKTASITCGAKNIATKRVHWYRQKPGQAPVVVVSDEEDRSSVIPERFSGSKSGDTATLEISRVEAGDEADYYCQVWDSLADQVVFGGGTKVTVL
3 | 0.3 kUA/L | 1500 kUA/L | 0.63 kUA/L |  |  | human IgE mAb 3B7 (antibody, V domains shown) VH: QVQLVQSGSELKKPGASMKVSCKASGYTFTNYAMNWVRQAPGQGLEWMGWINTNTGKPTYAQGFTGRFVFSLDTSVSMAYLQISSLEAGDTAVYFCARGESLAALGSFAYWGQGTLVTVSS VL: DIQMTQSPSSLSASVGDRVTITCRASQSINSYLAWYQQKPGKAPNLLIYAASNLQSGVPSRFSGSGSGTDFTLTISSLQPEDFATYYCQQSSSTFWTFGQGTKVEIK
4 | 0.36 kUA/L | 715 kUA/L | 0.46 kUA/L |  |  | human IgE mAb 21C10 (antibody, V domains shown) VH: EVQLVESGGGLVKPGGSLRLSCAASGFILSRSSMSWVRQAPGKGLEWVSYISSTSSHIYYADSLKGRFTISRDNTENSVYLQMSSLRAEDTGVYYCARKTNGAWFLDLWGRGTLVTVSS VL: QSVLTQPPSVSGAPGQRVTISCTGSSSNIGAGSDVHWYQQFPGSAPHVLIYGNNQRPSGVPDRFSASKSGTSASLAITGLQADDEADYYCQSYDYDLSGSWVFGGGTKLTVL
5 | 0.11 kUA/L | 286 kUA/L | 203 kUA/L |  |  | human IgE mAb 38B7 (antibody, V domains shown) VH: QVQLVESGGGVVQPGRSLRLSCVGSGFTFRRDAKYWVRQAPGKGLEWVAAISHDGGEEDYAESVKGRFTISRDNSRETVYLEMNSLRPEDTAVYYCATTRSGWYFDYWGQGALVTVSS VL: EIVLTQSPATLSLSPGARATLSCRASQSVDTYLAWYQQRRGQSPRLLIYDASKRATGIPARFSGSGSGTDFTLTISSLEPEDFAVYYCQQRNNWRTWTFGQGTKVEIN
6 |  | 21.4 kUA/L | 0.13 kUA/L |  |  | human IgE mAb 2C9 (antibody, V domains shown) VH: QVQLVESGGGLVKPGGSLRLSCAASGFSFSDFYMSWIRQAPGKGLECISYMSSSGGNIYYADSVKGRFTISRDNAKNSLSLQMNSLRADDTALYYCARRRYGSGSSIFDYWSQGTLVTVSS VL: SYELTQPPSVSVSPGQTASVTCSGDTLGDRYVSWYQQKAGQSPVLVIYQSGQRPSGIPERFSGSNSGNTATLSISETQALDEADYYCLTWDRGTPVFGPGTTVTVV
7 | 0.19 kUA/L | 420 kUA/L | 0.41 kUA/L |  |  | human IgE mAb 7B6 (antibody, V domains shown) VH: QVQLQQWGAGLLKPSETLSLTCAVYGGSFNGYYWSWIRQPPGKGLEWIGEIDHSGSTNYNSSLKSRVTISVDTSKNQFSLKLSSVTAADTAVYYCARRRIGSLLKYFQDWGQGTLVTVSS VL: SYELTQPPSVSVSPGQTASITCSGDKLGDSYVCWYQLKPGQSPVLVIYQDTKRPSGIPERFSGSNSGNTATLTISETQAMDEADYYCQAWDTTTDWVFGGGTKLTVL
8 |  |  |  | 50% | 20% and 25% | Ara h 6-specific blocking IgG mAb 1H9 (antibody, V domains shown) VH: QVQLVQSGSELRKPGASVKVSCKASGYTFTKYGMNWVRQAPGQGLEWMGWINTNTAKPTYAQDFTGRFVFSLDTSVNTAYLEISGLKAEDTAVYYCATDGSEGSWGQGTLVTVSS VL: DIQMTQSPSTLSASVGDRVTITCRASQSIGTWLAWHQQKPGTAPKVLIYKASNLKSGVPSRFSGSGSGTDFTLTISSLQPDDVATYYCQQYNTYSGTFGQGTRVEIK
9 | 0.15 kUA/L | 783 kUA/L | 0.46 kUA/L |  |  | human IgE mAb 26A5 (antibody, V domains shown) VH: QVQLVQSGSELRKPGASVKVSCKASGYTFTKYGMNWVRQAPGQGLEWMGWINTNTAKPTYAQDFTGRFVFSLDTSVNTAYLEISGLKAEDTAVYYCATDGSEGSWGQGTLVTVSS VL: DIQMTQSPSTLSASVGDRVTITCRASQSIGTWLAWHQQKPGTAPKVLIYKASNLKSGVPSRFSGSGSGTDFTLTISSLQPDDVATYYCQQYNTYSGTFGQGTRVEIK
10 |  |  |  | 50% | 20% and 25% | Ara h 6-specific blocking IgG mAb 8F3 (antibody, V domains shown) VH: QLQLQESGPGLVKPSETLSLTCTVSDASIDTPSYFWSWIRQPPGKGLEWIGSIYYTGNKYSNPSLKSRVTMSVDTPKRQFSLRLSSVTAADTAVYYCARYVDYVWLRAFDIWGQGTRVTVSS VL: EIVLTQSPATLSLSPGERATLSCRASPSAGRFLAWYQQRPGQAPRLLIYDASKRATDTPARFSGSGSGTDFNLTIASLEPEDFAVYYCQHRSNWPLTFGGGTKVEIK
